Consider two molecules from PMC12435366, “Maleic anhydride derived diphosphines: adaptable chelators for receptor-targeted ^99mTc, ^64Cu and ^188Re radiotracers” (Chemical Science, 2025).

This data set can be described thus: Stability of radiotracers in PBS / kit-based reaction solution. In kind it is physicochemical. Particulars: ^99mTc and ^188Re radiotracers; radio-HPLC. The protocol: The new radiotracers, [^64Cu(DP^An-PSMAt)2]^+ and [^64Cu(DP^MEP-PSMAt)2]^+, were purified using reverse-phase HPLC, reformulated in aqueous PBS (phosphate buffered saline) solution, and incubated with human serum at 37 °C. […] Both ^64Cu radiotracers were also stable in aqueous PBS solution (see SI).
Both [^99mTcO2(DP^An-PSMAt)2]^+ and [^99mTcO2(DP^MEP-PSMAt)2]^+, prepared using kits, were incubated at 37 °C in human serum for up to 24 h. […] [^188ReO2(DP^An-PSMAt)2]^+ and [^188ReO2(DP^MEP-PSMAt)2]^+, prepared using kits and then isolated using reverse-phase HPLC in >98% radiochemical purity, were also incubated in human serum under the same conditions. […] These ^99mTc and ^188Re radiotracers were also stable when left to stand in kit-based reaction solutions, or in PBS solution (see SI for full chromatograms).
64Cu: A solution of either [ 64Cu(DPAn-PSMAt)2]+ or [64Cu(DPMEP-PSMAt)2]+ (purified, >98% RCP, 0.6– 0.8 MBq in 8–20 µL PBS) was diluted with PBS (350 µL total volume) and incubated at 37 °C. After 24 h, the sample was analysed by analytical C18 radio-HPLC (Method 2). […]
Each aliquot was treated with an equal amount of ice -cold MeCN to precipitate serum proteins and centrifuged (10,000 rpm, 10 min). The supernatant was isolated, MeCN evaporated under a stream of N2, and the resultant solution analysed by analytical C18 radio-HPLC (Method 2). […]

Consider `COCCOc1ccc(P(/C(C(=O)O)=C(/C(=O)NCCOCCOCCOCCOCCC(=O)NCCCC[C@H](NC(=O)N[C@@H](CCC(=O)O)C(=O)O)C(=O)O)P(c2ccc(OCCOC)cc2)c2ccc(OCCOC)cc2)c2ccc(OCCOC)cc2)cc1` [[^99mTcO2(DP^MEP-PSMAt)2]^+, metal not drawn], for which the “stability when left to stand in kit-based reaction solutions, or in PBS solution” value is recorded as “stable”.

Turning to `COc1ccc(P(/C(C(=O)O)=C(/C(=O)NCCOCCOCCOCCOCCC(=O)NCCCC[C@H](NC(=O)N[C@@H](CCC(=O)O)C(=O)O)C(=O)O)P(c2ccc(OC)cc2)c2ccc(OC)cc2)c2ccc(OC)cc2)cc1` [[^99mTcO2(DP^An-PSMAt)2]^+, metal not drawn], the “stability when left to stand in kit-based reaction solutions, or in PBS solution” value is on record as “stable”.
